# Results from patent US20240342244A1, “Isthmin Protein Therapeutics for the Treatment of Non-Alcoholic Fatty Liver Disease” (The Board of Trustees of the Leland Stanford Junior …, priority 2021, published 2024).
# B1: ISM1: recombinant mouse ISM1 protein with a C-terminal myc-his tag generated in mammalian HEK 293 Expi cells (protein, UniProt A2ATD1 30-454, looked up)
# Isthmin-1: SDRQDAAAGNNNLNLESDSTSETSFPLSKEAPEEHQVVHQPFPRQRFPPETGHPSLQRDGPRSFLLDLPNFPDLSKADINGQNPNIQVTIEVVDGPDSEAEKDQHPENKPSWSLPAPDWRAWWQRSLSLARTNSGDQDDKYDSTSDDSNFLSVPRGWDRPAPGHRTFETKEQPEYDSTDGEGDWSLWSVCSVTCGNGNQKRTRSCGYACIATESRTCDRPNCPGIEDTFRTAATEVSLLAGSEEFNATKLFEVDMDSCERWMSCKSEFLKKYMHKVINDLPSCPCSYPTEVAYSTADIFDRIKRKDFRWKDASGPKEKLEIYKPTARYCIRSMLSLESTTLAAQHCCYGDNMQLITRGKGAGTPNLISTEFSAELHYKVDVLPWIICKGDWSRYNEARPPNNGQKCTESPSDEDYIKQFQEAREY
# modifications: C-terminal myc-His tag
# notes: recombinant mouse ISM1 protein with a C-terminal myc-his tag generated in mammalian HEK 293 Expi cells
# Key:
# human SGBS adipocytes = assay: 2-deoxy-3H-glucose uptake in human SGBS adipocytes; type: cell-based
# Description: Mouse and human pre-adipocytes culture and differentiation. Inguinal fat pads from 4-8 week old C57BL/6J male and female mice were dissected and mechanically digested for 10 min using spring scissors. Digested tissues were incubated in WAT isolation buffer (10 ml PBS, 2.4 U/ml dispase II (#04942078001, Roche), 10 mg/ml collagenase D (#11088858001, Roche) at 37° C. for 45 min. 20 mL growth media was added and the tissue suspension was filtered through a 100-μm cell strainer and centrifuged at 600×g for 5 min. The cell pellets were resuspended in 20 mL growth media, filtered through a 40-μm cell strainer, centrifuged at 600×g for 5 min, resuspended in 10 mL growth media, and plated in 10-cm collagen-coated dishes. The cells were cultured in growth media (DMEM/F-12 Glutamax, Thermo Fisher Scientific #10565018) supplemented with 10% fetal bovine serum. Two days post-confluency, differentiation was induced with growth media containing 1 μM rosiglitazone, 0.5 mM isobutylmethylxanthine, 1 μM dexamethasone, 5 μg/mL insulin. After two days, cells were re-fed with growth media containing 1 μM rosiglitazone and 5 μg/mL insulin. Cells were fully differentiated after 6-8 days. For ISM1 knockdown or overexpression in primary adipocytes using adenovirus, 500 μL crude virus was mixed with 500 μL fresh growth media containing 1 μM rosiglitazone and 5 μg/mL insulin was added to each well at day 2 of differentiation. At day 4, virus-containing media was removed and 500 μL fresh growth media without stimulators was added to each well. SGBS cells were differentiated as described previously (Fischer-Posovszky et al., 2008; Wabitsch et al., 2001). Briefly, cells were cultured in growth media DMEM/F-12 Glutamax, supplemented with 10% fetal bovine serum, 33 uM biotin, and 17 uM pantothenate. Two days post confluency, differentiation was induced with serum-free DMEM/F12 media containing 33 uM biotin, 17 uM pantothenate, 0.01 mg/ml transferrin, 20 nM insulin, 100 nM cortisol, 0.2 nM triiodothyronine, 25 nM dexamethasone, 0.25 mM isobutyl methylxanthine, and 2 μM rosiglitazone. After four days, cells were re-fed with growth media containing 0.01 mg/ml transferrin 20 nM insulin, 100 nM cortisol, 0.2 nM triiodothyronine. Cells were fully differentiated after day 8-10.
# (§1) Glucose uptake. Glucose uptake was performed as previously described (You et al., 2017). Briefly, 2-Deoxy-d-[2,6-3H]-glucose was purchased from PerkinElmer NEN radiochemicals. Fully differentiated adipocytes were washed with KRH buffer and starved in 0.5% BSA in KRH buffer for 4 h. Indicated concentrations of insulin or ISM1 were added at indicated time points. Cells were treated with a mixture of 500 μM 2-deoxy-D-glucose and 1.71 μCimL^−1 2-Deoxy-D-[1,2-3H (N)]-glucose for another 10 min followed by three washes using ice cold KRH buffer containing 200 mM glucose. The passive glucose uptake in the presence of 50 uM CytoB was less than 12% of the total glucose uptake. Cells were solubilized in 1% SDS and radioactivity was measured by liquid scintillation counting.
# [1] = test system: differentiated 3T3-L1 adipocytes; assay: 2-deoxy-3H-glucose uptake in differentiated 3T3-L1 adipocytes; type: cell-based; conditions: 1 h
# Description: as §1
# AML12 hepatocytes = assay: Protein synthesis assay (3H-leucine incorporation into proteins) in AML12 hepatocytes; type: cell-based, mouse; conditions: 24 h
# Description: Protein synthesis Assay. AML12 hepatocytes were washed twice with warm PBS and starved in serum-free media overnight. Indicated concentrations of insulin with or without ISM1 and 0.25 uCi of [3H]-Leucine (#NET460250UC, PerkinElmer) were added at the same time. After a 24 h incubation, cells were washed three times with ice cold PBS and lysed in RIPA buffer containing protease inhibitor cocktail (Roche). After 15 min centrifugation at 14000×g, supernatants were transferred to new tubes. Trichloroacetic acid was added to the protein extracts at a final concentration of 10% and incubated on ice for 1 h. After a 15 min centrifugation at 14000×g, pellets were washed with cold acetone, diluted in 10M NaOH and transferred to scintillation vials. The radioactivity was measured by liquid scintillation counting.
# DIO mice = assay: Therapeutic ISM1 administration for five days in DIO mice; type: in vivo, mouse; conditions: 5 mg/kg for five days
# Description: Therapeutic ISM1 recombinant protein administration in vivo. All pharmacologic studies using recombinant ISM1 protein were performed in mice with established diet-induced obesity or non-alcoholic fatty liver disease (NAFLD). For all experiments, male C57BL/6J mice purchased from Jax were fed either a high-fat diet (#D12492, Research Diets) or a NAFLD diet (#D09100310, Research Diets) prior to ISM1 protein injections. In all experiments, mice were mock injected with saline for three days prior to protein or drug injections to prevent stress-induced weight loss. Mice were I.P. injected with vehicle (saline) or indicated doses of ISM1 protein diluted in saline. For the 14-day experiments in NAFLD mice, 7-weeks old mice were fed with NAFLD diet for 3 weeks and then mock injected with saline for 3 days prior to protein injections. The induction of lipid accumulation with NAFLD diet was verified by the significant increase in hepatic lipid levels compared with mice on chow diet at the same time point. […] At the end of the experiments, mice and tissue weights were recorded. […]
# Glucose tolerance and insulin tolerance tests. […] Blood glucose levels were measured at 0, 15, 30, 45, 60, 90 and 120 mins. […] Blood glucose levels were measured at 0, 15, 30, 45, 60, 90 and 120 mins.
# [2] = Observation of hypoglycemia in overexpression or pharmacological administration studies; type: in vivo, mouse; conditions: overexpression or pharmacological administration of ISM1
molecule,measurement,setting,value
B1,effect on glucose uptake relative to that of insulin,human SGBS adipocytes; SGBS cells,50-100%
same,increase in glucose uptake,"human SGBS adipocytes; [3H]-2-deoxy-glucose, starting from 20 nM, 30 minutes",1.5 fold
same,concentration from which glucose uptake is increased,human SGBS adipocytes; doses ranging from 10 nM to 200 nM,20 nM
same,induction of glucose uptake,[1],does not induce glucose uptake
same,"lipid synthesis versus protein synthesis, side-by-side",AML12 hepatocytes; 100 nM ISM1 and 50 nM insulin vs 50 nM insulin alone,suppresses lipid synthesis in favor of protein synthesis
same,induction of protein synthesis (H3-leucine incorporation),AML12 hepatocytes; combined chronic ISM1 and insulin (50 nM) treatment,2.9 fold
same,insulin tolerance (ITT),DIO mice,modest improvement
same,ad lib glucose levels,DIO mice; vs vehicle,no difference
same,hypoglycemia,[2],do not observe hypoglycemia
